How the values were obtained:
Settings in all cases: both partners purified
[1] = molecular target: T1, STK4 (residues 1–487) K59R (human, UniProt Q13043 1-487, K59R); assay: ITC; MicroCal PEAQ-ITC, 25 °C; 20 mM Tris-HCl pH 7.5, 100 mM NaCl, 1 mM DTT; ~50 μM in the cell, ~500 μM in the syringe; one-site binding model
T1 construct: The tag could be cut by HRV 3C protease 'if desired'; also called kinase-dead full-length STK4; MST1; source: E. coli BL21 (DE3), purified (Ni-NTA, SEC)
T1 sequence (looked up): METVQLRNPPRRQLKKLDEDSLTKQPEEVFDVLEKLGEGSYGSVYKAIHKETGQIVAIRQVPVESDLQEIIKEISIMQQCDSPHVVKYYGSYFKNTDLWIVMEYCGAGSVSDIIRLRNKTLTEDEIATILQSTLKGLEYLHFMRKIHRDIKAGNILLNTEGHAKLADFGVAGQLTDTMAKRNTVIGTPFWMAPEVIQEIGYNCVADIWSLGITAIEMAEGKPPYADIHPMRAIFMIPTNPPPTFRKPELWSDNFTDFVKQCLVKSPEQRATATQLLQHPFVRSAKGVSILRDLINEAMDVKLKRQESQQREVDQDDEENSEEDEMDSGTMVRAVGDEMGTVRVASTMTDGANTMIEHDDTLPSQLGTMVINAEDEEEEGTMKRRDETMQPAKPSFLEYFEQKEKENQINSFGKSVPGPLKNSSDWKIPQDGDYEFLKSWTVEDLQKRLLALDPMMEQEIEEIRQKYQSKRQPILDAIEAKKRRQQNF

[2] = molecular target: T2, STK4 (residues 11–326) K59R (human, UniProt Q13043 11-326, K59R); assay: as above
T2 construct: Monomer-dimer equilibrium in solution; dimer in the crystal; also called STK4 KD; source: E. coli BL21 (DE3), purified (Ni-NTA, SEC)
T2 sequence (looked up): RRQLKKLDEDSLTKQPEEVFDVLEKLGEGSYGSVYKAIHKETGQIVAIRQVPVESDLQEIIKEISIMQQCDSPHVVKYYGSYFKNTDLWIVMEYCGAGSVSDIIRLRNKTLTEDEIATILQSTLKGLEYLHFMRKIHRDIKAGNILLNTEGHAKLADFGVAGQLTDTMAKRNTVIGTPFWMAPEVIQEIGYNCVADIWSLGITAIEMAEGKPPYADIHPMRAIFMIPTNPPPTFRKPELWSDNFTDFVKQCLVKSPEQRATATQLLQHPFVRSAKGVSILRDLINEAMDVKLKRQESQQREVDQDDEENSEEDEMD

[3] = molecular target: T3, STK4 (residues 1–326) K59R (human, UniProt Q13043 1-326, K59R); assay: SEC; each protein alone and the mixture at matched concentrations on Superdex 200 Increase 10/300 GL or Superdex 75 Increase 10/300 GL; a forward shift or increase of the peak read qualitatively; fractions on SDS-PAGE (Fig. 1c: 20 μM HOIP RING2-LDD, 30 μM STK4 KD, Superdex 75 Increase)
T3 construct: also called KD; source: E. coli BL21 (DE3), purified (Ni-NTA, SEC)
T3 sequence (looked up): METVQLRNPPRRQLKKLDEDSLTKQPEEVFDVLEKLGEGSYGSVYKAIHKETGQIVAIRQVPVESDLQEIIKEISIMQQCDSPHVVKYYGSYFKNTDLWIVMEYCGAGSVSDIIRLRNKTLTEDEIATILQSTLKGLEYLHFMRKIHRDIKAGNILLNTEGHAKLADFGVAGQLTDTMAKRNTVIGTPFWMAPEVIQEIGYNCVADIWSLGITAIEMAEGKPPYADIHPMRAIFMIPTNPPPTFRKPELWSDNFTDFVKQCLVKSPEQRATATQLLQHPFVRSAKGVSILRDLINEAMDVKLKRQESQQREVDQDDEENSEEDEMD

Measured: binding result

B1: HOIP (residues 854–1072) (domain or fragment, UniProt Q96EP0 854-1072, looked up)
chain: EYQAQGLAMYLQENGIDCPKCKFSYALARGGCMHFHCTQCRHQFCSGCYNAFYAKNKCPEPNCRVKKSLHGHHPRDCLFYLRDWTALRLQKLLQDNNVMFNTEPPAGARAVPGGGCRVIEQKEVPNGLRDEACGKETPAGYAGLCQAHYKEYLVSLINAHSLDPATLYEVEELETATERYLHVRPQPLAGEDPPAYQARLLQKLTEEVPLGQSIPRRRK
notes: also called HOIP RING2-LDD; source: E. coli BL21 (DE3), purified (glutathione resin, SEC)
binds: [1] | [2] | [3]

From publication PMC12441119 (Cell Discovery, 2025)
